In article PMC7284817:

Experiments:
[1] = target: S. mansoni neuropeptide NPP2a, membrane-anchored ligand fusion (linker-WBP1 TMP-Cub-GAL4) (S. mansoni); experiment: two-hybrid; MALAR-Y2H; β-galactosidase (ONPG) assay of diploid cells, lysate incubated 30 min at 30°C, OD405, Miller Units, mean of two clones
[2] = target: CXC-motif chemokine ligand 12 (CXCL12), membrane-anchored ligand fusion (Cub-GAL4); experiment: as above

Chain of mouse receptor CXCR4, NubG fusion (positive control) (P70658 whole entry, the tested form may be a part): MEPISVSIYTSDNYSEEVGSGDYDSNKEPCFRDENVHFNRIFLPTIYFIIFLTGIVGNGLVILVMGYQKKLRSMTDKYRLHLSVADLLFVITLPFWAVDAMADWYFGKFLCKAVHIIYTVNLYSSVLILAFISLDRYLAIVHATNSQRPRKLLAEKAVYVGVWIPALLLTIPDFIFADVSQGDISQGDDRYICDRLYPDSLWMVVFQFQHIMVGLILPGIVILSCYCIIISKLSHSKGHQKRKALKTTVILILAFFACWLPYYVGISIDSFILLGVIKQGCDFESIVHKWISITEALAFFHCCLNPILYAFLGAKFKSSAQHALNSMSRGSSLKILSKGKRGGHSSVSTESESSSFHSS

“Schistosoma mansoni G protein-coupled receptor GPCR14 (Smp_203500), fused to NubG” gave a Miller units (β-Gal activity) [1] of 2.68 Miller units.
For “mouse receptor CXCR4, NubG fusion (positive control)”, the Miller units (β-Gal activity) [2] was 3.07 Miller units.
